This passage reports Kd results from the Immune Epitope Database (IEDB).

What is called Kd is the equilibrium constant for the complex coming apart.

Assay [1] addresses HLA-B*08:02. Kind of assay: IEDB peptide-MHC binding, purified MHC/direct/fluorescence; filed as Kd, often an IC50 or EC50 that approximates it; ≥ and ≤ were set here for values at or beyond the usual limits of such assays. The conditions noted are these: source organism: Dengue virus 2 Thailand/16681/84.
Assay [2] deals with HLA-B*15:01. The assay can be described thus: IEDB peptide-MHC binding, purified MHC/competitive/radioactivity; filed as Kd, often an IC50 or EC50 that approximates it; ≥ and ≤ were set here for values at or beyond the usual limits of such assays. The conditions noted are these: source organism: Dengue virus 2 Jamaica/1409/1983.
Assay [3] has as its target HLA-A*26:01. The assay can be described thus: IEDB peptide-MHC binding, purified MHC/direct/fluorescence; filed as Kd, often an IC50 or EC50 that approximates it; ≥ and ≤ were set here for values at or beyond the usual limits of such assays.
For assay [4], the target named is HLA-B*46:01. Described as above.
In assay [5] the target is HLA-A*03:01. The assay is described as above.
The target in assay [6] is HLA-A*02:11. The assay is described as above. As to conditions: source organism: Influenza A virus(A/swine/Henan/5/2004(H9N2)).
The target of assay [7] is HLA-B*40:01. The assay is described as above.
For assay [8], the target named is HLA-A*24:02. Described as above.
Assay [9] addresses HLA-B*58:01. The description is as above.
Assay [10] deals with HLA-A*02:19. Described as above.
The target in assay [11] is HLA-B*15:01. The assay is described as above.
Assay [12] concerns the target HLA-B*27:05. The assay is described as above.
The target of assay [13] is HLA-A*01:01. The description is as above.
The target of assay [14] is HLA-B*07:02. Described as above.
Assay [15] concerns the target HLA-B*15:09. Described as above.
The target of assay [16] is HLA-A*02:03. The description is as above.
Assay [17] deals with HLA-B*44:02. The description is as above.
In assay [18] the target is HLA-A*02:01. Described as above.
The target in assay [19] is HLA-B*18:01. The description is as above. The conditions noted are these: source organism: Influenza A virus (A/swine/Hong Kong/5190/99(H3N2)).
The target of assay [20] is HLA-A*31:01. Kind of assay: IEDB peptide-MHC binding, purified MHC/competitive/fluorescence; filed as Kd, often an IC50 or EC50 that approximates it; ≥ and ≤ were set here for values at or beyond the usual limits of such assays. As to conditions: source organism: Influenza A virus (A/Fort Monmouth/1/1947-mouse adapted(H1N1)).
Assay [21] addresses HLA-A*69:01. Kind of assay: IEDB peptide-MHC binding, purified MHC/direct/fluorescence; filed as Kd, often an IC50 or EC50 that approximates it; ≥ and ≤ were set here for values at or beyond the usual limits of such assays. The conditions noted are these: source organism: Influenza A virus (A/Hong Kong/507/97(H5N1)).
The target in assay [22] is HLA-B*08:01. Described as above. The conditions noted are these: source organism: Influenza A virus (A/Hong Kong/507/97(H5N1)).
For assay [23], the target named is HLA-A*31:01. The description is as above. As to conditions: source organism: Influenza A virus (A/Hong Kong/507/97(H5N1)).
Assay [24] concerns the target HLA-A*11:01. The assay is described as above. The conditions noted are these: source organism: Influenza A virus (A/Hong Kong/507/97(H5N1)).
In assay [25] the target is HLA-A*24:03. The assay is described as above. As to conditions: source organism: Zaire ebolavirus.
The target of assay [26] is HLA-A*68:02. The description is as above. The conditions noted are these: source organism: Zaire ebolavirus.
In assay [27] the target is HLA-A*29:02. Described as above. As to conditions: source organism: Zaire ebolavirus.
Assay [28] concerns the target HLA-A*02:12. The assay is described as above. The conditions noted are these: source organism: Zaire ebolavirus.
Assay [29] concerns the target HLA-B*57:01. The assay can be described thus: IEDB peptide-MHC binding, purified MHC/competitive/fluorescence; filed as Kd, often an IC50 or EC50 that approximates it; ≥ and ≤ were set here for values at or beyond the usual limits of such assays. The conditions noted are these: source organism: Zaire ebolavirus.
For assay [30], the target named is HLA-A*26:01. Described as above. The conditions noted are these: source organism: Zaire ebolavirus.
Assay [31] deals with HLA-B*46:01. The description is as above. The conditions noted are these: source organism: Zaire ebolavirus.
Assay [32] deals with HLA-A*69:01. The assay is described as above. As to conditions: source organism: Zaire ebolavirus.
Assay [33] has as its target HLA-B*51:01. Described as above. The conditions noted are these: source organism: Zaire ebolavirus.
The target of assay [34] is HLA-B*39:01. The assay is described as above. The conditions noted are these: source organism: Zaire ebolavirus.
In assay [35] the target is HLA-B*15:01. The assay is described as above. As to conditions: source organism: Zaire ebolavirus.
In assay [36] the target is HLA-A*02:01. The description is as above. The conditions noted are these: source organism: Zaire ebolavirus.
Assay [37] deals with HLA-B*27:03. The assay is described as above. As to conditions: source organism: Zaire ebolavirus.
[38] abbreviates: source organism: Influenza A virus(A/swine/Henan/5/2004(H9N2)).
Setting [39] is: source organism: Influenza A virus (A/swine/Hong Kong/5190/99(H3N2)).
Where [40] appears, read: source organism: Influenza A virus (A/Puerto Rico/8/34/Mount Sinai(H1N1)).
Where [41] appears, read: source organism: Influenza A virus (A/Taiwan/2/2006(H1N1)).
The mark [42] stands for this setting: source organism: Influenza A virus (A/Hong Kong/507/97(H5N1)).
The mark [43] stands for this setting: source organism: Zaire ebolavirus.

As for QLKGMSYSM, the Kd in assay [1] is ≥ 20 µM; in assay [2] it was 0.0539 µM.

In the case of YMFESKSMK, the Kd was ≥ 20 µM in [3] (setting [38]); ≥ 20 µM in assay [4] (setting [39]); 0.232 µM in assay [5] (setting [40]); 0.003 µM in assay [6]; ≥ 20 µM in assay [7] (setting [39]); ≥ 20 µM in assay [8] (setting [39]). Further, the Kd is ≥ 20 µM in assay [9] (setting [39]); ≥ 20 µM in assay [10] (setting [38]); ≥ 20 µM in [11] (setting [39]); 0.155 µM in assay [12] (setting [40]); ≥ 20 µM in [13] (setting [39]); ≥ 20 µM in assay [14] (setting [39]). The Kd was ≥ 20 µM in assay [15] (setting [38]); 0.024 µM in [16] (setting [38]); ≥ 20 µM in [17] (setting [39]); 0.478 µM in [18] (setting [40]); ≥ 20 µM in assay [19]; 0.0212 µM in [20].

In the case of GTSKIKMKW, the Kd was ≥ 20 µM in [3] (setting [41]); ≥ 20 µM in [4] (setting [42]); ≥ 20 µM in assay [5] (setting [42]); ≥ 20 µM in assay [7] (setting [42]); ≥ 20 µM in assay [8] (setting [42]); 0.18 µM in assay [9] (setting [42]). Further, the Kd in assay [21], in assay [22], in [11] (setting [42]), in assay [23], in [12] (setting [42]) and in assay [13] (setting [42]) was ≥ 20 µM in each case. Besides, the equilibrium dissociation constant (Kd) in [14] (setting [42]), in [15] (setting [41]), in assay [17] (setting [42]), in assay [18] (setting [42]) and in assay [24] was ≥ 20 µM each time.

For the sequence LEFNSSLAI, the dissociation constant (Kd) was ≥ 20 µM in assay [5] (setting [43]); 0.0258 µM in assay [7] (source organism: Ebola virus - Gabon (1994-1997)); ≥ 20 µM in [25]; ≥ 20 µM in [10] (setting [43]); ≥ 20 µM in assay [26]; ≥ 20 µM in assay [16] (setting [43]). For the same sequence, the Kd in [27], in assay [28], in assay [29], in [30], in assay [31] and in assay [32] was ≥ 20 µM each time. Also, the Kd in assay [33], in assay [34], in assay [35], in [36] and in [37] was ≥ 20 µM in each case.
